Key:
[1] = target: T1, reconstituted holoenzyme from HK-STAAU_R12 and S. aureus core enzyme (Staphylococcus aureus, UniProt P0A0J0); assay: In vitro transcription and TCA precipitation assay, 96-well; type: biochemical; settings: 10 μM, FIG. 8
T1 construct: made in house; S. aureus RN4220 transformed with pTMHB rpoA (core enzyme)
Excerpt: In order to convert this gel-based transcription assay to a 96-well high through put format, we used an in vitro transcription assay followed by a TCA precipitation step in order to separate radiolabeled nucleotides incorporated into nucleic acid from unincorporated label. Such format is convenient as it will allow rapid screening with a large collection of compounds. In this TCA precipitation assay, we reconstituted the holoenzyme from STAAU_R12 and S. aureus core enzyme instead of using the E. coli core enzyme with STAAU_R12.
The E. coli core enzyme (Epicentre) was used as a positive control for monitoring transcription efficiency. The set up of high throughput screening assay for STAAU_R12 is illustrated in FIG. 7. […] UTP (3000 Ci/mmole), 1 U of RNasin (Promega) and 40 ng of pTMSM template DNA (a pTM derivative vector). To investigate the in vitroeffectofG1ORF67 on STAAU_R12 mediated transcriptional activation, G1ORF67 and a negative control (10 μM) were added to the mixture and the reaction was incubated for 1 h at 37° C. in a 96-well PCR-plate (BD-Falcon™). […] After filtration, the wells were washed 3 times (225 μl per wash) with 10% TCA, 2 times (225 μl per wash) with 95% ethanol and then 75 μl of liquid scintillation cocktail was added and the plates were counted for 30 s on a Trilux™ Microbeta counter (Perkin Elmer-Packard).

[2] = target: T2, HK-STAAU_R12 (Staphylococcus aureus, UniProt P0A0I8 1-368); assay: TR-FRET, 32 nM of both GB-G1ORF67 and HK-STAAU_R12
T2 construct: not shown: N-terminal 6x histidine tag and heart muscle kinase (HMK) phosphorylation site of vector pH6K

[3] = target: T3, STAAU_R12 (Staphylococcus aureus, UniProt P0A0J0); assay: Far Western analysis with 32P-labeled HK-STAAU_R12 probe; type: binding; set-up: made in house; host or cells: E. coli BL21; settings: 100 ng to 2 μg immobilised protein, FIG. 4
Procedure: Radiolabeling of the proteins was done through the heart muscle phosphate acceptor site with the heart muscle kinase enzyme (HMK). The labeled probe was incubated with immobilized target protein, and the interaction was detected by exposure to X-ray film after extensive washes.
For radiolabeling with […], 10-15 μg of STAAU_R12 fused to 6× histidine and the HMK kinase acceptor domain (HK-STAAU_R12) were incubated with 50 units of the catalytic sub-unit of cAMP-dependent protein kinase (Heart Muscle Kinase; Sigma) in a total volume of 100 μl containing 20 mM Tris pH 7.5, 100 mM NaCl, 12 mM MgCl2, 1 mM DTT and 50 μCi of [γ^32P]-ATP (3000 Ci/mmole) (NEN/Mandel) for 30 min at room temperature. To remove free nucleotides, the protein was applied to a Sephadex-G50™ column and eluted with Z-buffer (25 mM Hepes pH 7.7, 12.5 mM MgCl2, 20% glycerol, 100 mM KCl & 1 mM DTT) and the incorporation of γ^32P-ATP was determined by counting in a liquid scintillation counter.
Increasing amounts (from 100 ng to 2 μg) of HB-G1ORF67 and as a negative control, 77ORF104 protein (2 μg) were used for Far-western analysis. Proteins were resolved by 15% SDS-PAGE and transferred onto a nitrocellulose membrane (Millipore). […]

[4] = target: T2, HK-STAAU_R12; assay: TR-FRET competition, untagged G1ORF67 against 32 nM GB-G1ORF67 on 32 nM HK-STAAU_R12
[5] = target: STAAU_R12 full length fused to the Gal4 activation domain (p[…]_R12) (Staphylococcus aureus, UniProt P0A0I8 1-368); assay: yeast two-hybrid, AH109
[6] = target: T3, STAAU_R12; assay: Yeast two-hybrid analysis; type: cell-based; set-up: expressed in transfected cells; host or cells: yeast strain AH109 (Clontech); settings: yeast AH109
Excerpt: To validate the interaction between G1ORF67 and STAAU_R12, we first performed yeast two-hybrid analyses with full length and deletions within both STAAU_R12 and G1ORF67. The inserts were cloned into pGADT7™ and pGBK™, the yeast vectors for two hybrid system studies (Clontech Laboratories) as fusions with the Gal4 activation domain (for pGADT7™) as well as with the Gal4 DNA-binding domain (for pGBK™). pGADT7 and pGBK recombinant plasmids bearing different combinations of constructs were introduced into a yeast strain (AH109, Clontech Laboratories), previously engineered to contain chromosomally-integrated copies of E. coli lacZand the selectable HIS3 and ADE2 genes. […]
To define the minimal region of STAAU_R12 conferring an interaction with G1ORF67, six deletions of STAAU_R12 were cloned into pGADT7 and introduced into AH109 yeast cells with the pGBK vector containing the full length sequence of G1ORF67. The resulting co-transformants were analyzed for their ability to induce expression of reporter genes.
To define the minimal region of G1ORF67 conferring an interaction with STAAU_R12, six deletions of G1ORF67 were cloned into pGADT7 and introduced into AH109 yeast cells with the pGBK vector containing the full length sequence of STAAU_R12. The resulting co-transformants were analyzed for their ability to induce expression of reporter genes required for viability on selective medium.

[7] = target: SV40 large T antigen (pGADT7-LargeT) (SV40, UniProt P03070 86-708); assay: yeast two-hybrid, AH109
SV40 large T antigen (pGADT7-LargeT), sequence (P03070 86-708 limits assumed): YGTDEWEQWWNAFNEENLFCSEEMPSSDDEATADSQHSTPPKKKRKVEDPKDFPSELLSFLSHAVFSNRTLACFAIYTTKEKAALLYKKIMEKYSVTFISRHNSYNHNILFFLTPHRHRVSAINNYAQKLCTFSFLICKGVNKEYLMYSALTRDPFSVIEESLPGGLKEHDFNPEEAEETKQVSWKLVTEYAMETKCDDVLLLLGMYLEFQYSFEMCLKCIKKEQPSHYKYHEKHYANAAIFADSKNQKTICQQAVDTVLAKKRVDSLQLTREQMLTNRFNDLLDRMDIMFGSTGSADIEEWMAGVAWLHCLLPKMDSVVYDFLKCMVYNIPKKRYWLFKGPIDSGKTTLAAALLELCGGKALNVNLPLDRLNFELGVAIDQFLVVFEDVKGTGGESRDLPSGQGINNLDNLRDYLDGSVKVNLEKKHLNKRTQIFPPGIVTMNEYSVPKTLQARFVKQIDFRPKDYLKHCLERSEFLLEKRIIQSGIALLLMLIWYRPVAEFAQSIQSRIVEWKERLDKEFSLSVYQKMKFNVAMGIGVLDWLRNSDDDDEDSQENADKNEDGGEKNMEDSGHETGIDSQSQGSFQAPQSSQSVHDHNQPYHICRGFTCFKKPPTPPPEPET

T3 sequence (P0A0J0 whole entry): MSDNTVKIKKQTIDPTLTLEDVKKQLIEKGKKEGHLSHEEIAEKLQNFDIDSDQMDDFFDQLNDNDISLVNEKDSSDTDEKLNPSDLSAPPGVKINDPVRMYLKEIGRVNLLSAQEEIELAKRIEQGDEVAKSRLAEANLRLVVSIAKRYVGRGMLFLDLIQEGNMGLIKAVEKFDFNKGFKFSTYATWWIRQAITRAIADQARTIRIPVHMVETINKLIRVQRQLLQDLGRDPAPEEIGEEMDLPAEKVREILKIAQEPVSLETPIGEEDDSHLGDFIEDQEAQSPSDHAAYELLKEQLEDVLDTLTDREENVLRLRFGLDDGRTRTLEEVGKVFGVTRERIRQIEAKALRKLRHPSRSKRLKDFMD
T2 sequence (P0A0I8 whole entry): as the sequence (P0A0J0 whole entry) above
T1 sequence (P0A0J0 whole entry): as above
STAAU_R12 full length fused to the Gal4 activation domain (p[…]_R12), sequence (P0A0I8 whole entry, the tested form may be a part): as the sequence (P0A0J0 whole entry) above

Q: Which “inhibition of STAAU_R12 mediated transcriptional activation (TCA precipitation)” value [1] does the source give for “GST: glutathione-S-transferase protein used as a negative control [reference compound]” here?
A: Its value is “did not show any inhibition”.

B1: GB-G1ORF67 (other)
chain: MKLKILDKDNATLNVFHRNKEHKTIDNVPTANLVDWYPLSNAYEYKLSRNGEYLELKRLRSTLPSSYGLDDNNQDIIRDNNHRCKIGYWYNPAVRKDNLKIIEKAKQYGLPIITEEYDANTVEQGFRDIGVIFQSLKTIVVTRYLEGKTEEELRIFNMKSEESQLNEALKESDFSVDLTYSDLGQIYNMLLLMKKISK
notes: also called GST-Bio fusion of G1ORF67; GST-tagged G1ORF67
Q: With B1 as the molecule, how does the TR-FRET signal-to-background [2] read?
A: The TR-FRET signal-to-background was 30 ratio (to 1).

B2: HB-G1ORF67: G1ORF67 fused N-terminally to 6× Histidine residues and a biotin acceptor domain, purified from E. coli (protein)
chain: MKLKILDKDNATLNVFHRNKEHKTIDNVPTANLVDWYPLSNAYEYKLSRNGEYLELKRLRSTLPSSYGLDDNNQDIIRDNNHRCKIGYWYNPAVRKDNLKIIEKAKQYGLPIITEEYDANTVEQGFRDIGVIFQSLKTIVVTRYLEGKTEEELRIFNMKSEESQLNEALKESDFSVDLTYSDLGQIYNMLLLMKKISK
modifications: left off: small tags and cut ends
notes: G1ORF67 fused N-terminally to 6× Histidine residues and a biotin acceptor domain, purified from E. coli
Q: Which “interaction with labeled STAAU_R12 probe” value [3] does the source give for B2 here?
A: The value was “directly interacts with STAAU_R12 in a dose-dependent manner”.

B3: untagged G1ORF67 (other)
chain: MKLKILDKDNATLNVFHRNKEHKTIDNVPTANLVDWYPLSNAYEYKLSRNGEYLELKRLRSTLPSSYGLDDNNQDIIRDNNHRCKIGYWYNPAVRKDNLKIIEKAKQYGLPIITEEYDANTVEQGFRDIGVIFQSLKTIVVTRYLEGKTEEELRIFNMKSEESQLNEALKESDFSVDLTYSDLGQIYNMLLLMKKISK
notes: also called G1ORF67 with GST portion removed by PreScission protease; not shown: the bioti
Q: With B3 as the molecule, how does the IC50 [4] read?
A: The IC50 was roughly 0.03 µM.

B4: LaminC (pGBKT7LaminC) (other)
chain: MKLLSSIEQACDICRLKKLKCSKEKPKCAKCLKNNWECRYSPKTKRSPLTRAHLTEVESRLERLEQLFLLIFPREDLDMILKMDSLQDIKALLTGLFVQDNVNKDAVTDRLASVETDMPLTLRQHRISATSSSEESSNKGQRQLTVSSEEVVSREVSGIKAAYEAELGDARKTLDSVAKERARLQLELSKVREEFKELKARNTKKEGDLIAAQARLKDLEALLNSKEAALSTALSEKRTLEGELHDLRGQVAKLEAALGEAKKQLQDEMLRRVDAENRLQTMKEELDFQKNIYSEELRETKRRHETRLVEID
Q: Does B4 bind [5]?
A: Result: no binding

B5: G1ORF67—50—198: 149 amino acid fragment of G1ORF67, amino acids residues 50 to 198 (SEQ ID NO: 8) (protein)
chain: NGEYLELKRLRSTLPSSYGLDDNNQDIIRDNNHRCKIGYWYNPAVRKDNLKIIEKAKQYGLPIITEEYDANTVEQGFRDIGVIFQSLKTIVVTRYLEGKTEEELRIFNMKSEESQLNEALKESDFSVDLTYSDLGQIYNMLLLMKKISK
modifications: Bacteriophage G1
Q: With B5 as the molecule, how does the “interaction with full length STAAU_R12 (growth on SD THAL minus medium)” value [6] read?
A: The value was “found to interact”.

B6: G1ORF67 full length fused to the Gal4 DNA-binding domain (G1pGBKORF67) (other)
chain: MKLLSSIEQACDICRLKKLKCSKEKPKCAKCLKNNWECRYSPKTKRSPLTRAHLTEVESRLERLEQLFLLIFPREDLDMILKMDSLQDIKALLTGLFVQDNVNKDAVTDRLASVETDMPLTLRQHRISATSSSEESSNKGQRQLTVSMKLKILDKDNATLNVFHRNKEHKTIDNVPTANLVDWYPLSNAYEYKLSRNGEYLELKRLRSTLPSSYGLDDNNQDIIRDNNHRCKIGYWYNPAVRKDNLKIIEKAKQYGLPIITEEYDANTVEQGFRDIGVIFQSLKTIVVTRYLEGKTEEELRIFNMKSEESQLNEALKESDFSVDLTYSDLGQIYNMLLLMKKISK
Q: Does B6 bind [7]?
A: Result: no binding
